Experimental data taken from paper PMC8298488, “Structure of the molecular bushing of the bacterial flagellar motor” (Nature Communications, 2021).

B1: FlgI (natural protein, UniProt P15930 20-365, looked up)
chain: ERIRDLTSVQGVRENSLIGYGLVVGLDGTGDQTTQTPFTTQTLNNMLSQLGITVPTGTNMQLKNVAAVMVTASYPPFARQGQTIDVVVSSMGNAKSLRGGTLLMTPLKGVDSQVYALAQGNILVGGAGASAGGSSVQVNQLNGGRITNGAIIERELPTQFGAGNTINLQLNDEDFTMAQQITDAINRARGYGSATALDARTVQVRVPSGNSSQVRFLADIQNMEVNVTPQDAKVVINSRTGSVVMNREVTLDSCAVAQGNLSVTVNRQLNVNQPNTPFGGGQTVVTPQTQIDLRQSGGSLQSVRSSANLNSVVRALNALGATPMDLMSILQSMQSAGCLRAKLEII
notes: FlgI, the periplasmic protein that forms the P ring, Salmonella enterica serovar Typhimurium; made as a precursor with a cleavable N-terminal signal peptide; 26 subunits form the P ring (C26 symmetry); Domains: FlgI-OR (1-11 and 160-230), FlgI-IRU (12-159), FlgI-IRL (231-346); also called P ring protein; I0; source: endogenous, Salmonella HK1002 cells; in the hook-basal body (HBB) purified by …
B2: FlgH (natural protein, UniProt P0A1N8 22-232, looked up)
chain: CAWIPAKPLVQGATTAQPIPGPVPVANGSIFQSAQPINYGYQPLFEDRRPRNIGDTLTIVLQENVSASKSSSANASRDGKTSFGFDTVPRYLQGLFGNSRADMEASGGNSFNGKGGANASNTFSGTLTVTVDQVLANGNLHVVGEKQIAINQGTEFIRFSGVVNPRTISGSNSVPSTQVADARIEYVGNGYINEAQNMGWLQRFFLNLSPM
notes: FlgH, the lipoprotein that forms the L ring, Salmonella enterica serovar Typhimurium; made as a precursor with a cleavable N-terminal signal peptide; the atomic model holds the whole 211 residues of FlgH; 26 subunits form the L ring (C26 symmetry); also called L ring protein; H0; source: endogenous, Salmonella HK1002 cells; in the hook-basal body (HBB) purified by sucrose density-gradient …

Columns and labels:
[1] = target: the molecule itself; assay: cryo-EM structure; LP ring part of hook-basal body (HBB) particle images, C26 symmetry applied, 3.5 Å; HBB purified from Salmonella HK1002; final buffer 20 mM Tris-HCl pH 8.0, 150 mM NaCl, 0.05% Triton X-100
[2] = target: B1; assay: as above; conditions: both partners purified

Binder | stoichiometry N [1] | binding result [2]
B1 | 26 | –
B2 | 26 | binds
